Assay results taken from US20260167699A1 (Chugai, published 2026).

T1: FcγRIIb extracellular domain, C-terminal His tag (human, UniProt P31994 43-217)
T1 construct: extracellular domain; also called 2b
T1 sequence: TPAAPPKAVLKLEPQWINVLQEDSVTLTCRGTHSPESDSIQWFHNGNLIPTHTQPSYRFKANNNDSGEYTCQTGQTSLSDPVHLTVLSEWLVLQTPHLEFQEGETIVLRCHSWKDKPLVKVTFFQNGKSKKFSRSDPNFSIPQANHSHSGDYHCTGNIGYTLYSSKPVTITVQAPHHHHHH

T2: FcγRIIa(R) extracellular domain, C-terminal His tag (human, UniProt P12318 34-217)
T2 construct: extracellular domain; also called 2aR
T2 sequence: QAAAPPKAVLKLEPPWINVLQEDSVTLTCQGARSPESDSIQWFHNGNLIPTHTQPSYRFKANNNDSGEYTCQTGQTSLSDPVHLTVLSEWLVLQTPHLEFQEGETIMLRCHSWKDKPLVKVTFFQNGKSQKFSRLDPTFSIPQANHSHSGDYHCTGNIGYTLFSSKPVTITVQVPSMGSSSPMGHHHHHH

T3: FcγRIIa(H) extracellular domain, C-terminal His tag (human, UniProt P12318 34-217)
T3 construct: extracellular domain; also called 2aH
T3 sequence: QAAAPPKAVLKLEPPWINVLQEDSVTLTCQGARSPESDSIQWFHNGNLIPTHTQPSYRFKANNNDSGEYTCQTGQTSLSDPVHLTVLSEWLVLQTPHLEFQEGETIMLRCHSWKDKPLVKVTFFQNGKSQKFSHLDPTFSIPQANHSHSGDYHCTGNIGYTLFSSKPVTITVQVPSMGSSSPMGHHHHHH

B1: GpH7-A5/GpH7-B3 variant Q295_08L/GpL16-k0 (antibody, human IgG1, kappa)
heavy 1: not shown
heavy 2: not shown
light: DIVMTQSPLSLPVTPGEPASISCQASESLVHSNRNTYLHWYLQKPGQSPQLLIYKVSNRFSGVPDRFSGSGSGTDFTLKISRVEAEDVGVYYCSQNTHVPPTFGQGTKVEIERTVAAPSVFIFPPSDEQLKSGTASVVCLLNNFYPREAKVQWKVDNALQSGNSQESVTEQDSKDSTYSLSSTLTLSKADYEKHKVYACEVTHQGLSSPVTKSFNRGEC
notes: heterodimerized IgG1, one H chain mutated; also called He Ab; copies: 1 + 1 + 2
B2: GpH7-A5/GpH7-B3 variant Q295_10E/GpL16-k0 (antibody, human IgG1, kappa)
heavy 1: not shown
heavy 2: not shown
light: DIVMTQSPLSLPVTPGEPASISCQASESLVHSNRNTYLHWYLQKPGQSPQLLIYKVSNRFSGVPDRFSGSGSGTDFTLKISRVEAEDVGVYYCSQNTHVPPTFGQGTKVEIERTVAAPSVFIFPPSDEQLKSGTASVVCLLNNFYPREAKVQWKVDNALQSGNSQESVTEQDSKDSTYSLSSTLTLSKADYEKHKVYACEVTHQGLSSPVTKSFNRGEC
notes: as for B1
B3: GpH7-A5/GpH7-B3 variant Q295_14T/GpL16-k0 (antibody, human IgG1, kappa)
heavy 1: not shown
heavy 2: not shown
light: DIVMTQSPLSLPVTPGEPASISCQASESLVHSNRNTYLHWYLQKPGQSPQLLIYKVSNRFSGVPDRFSGSGSGTDFTLKISRVEAEDVGVYYCSQNTHVPPTFGQGTKVEIERTVAAPSVFIFPPSDEQLKSGTASVVCLLNNFYPREAKVQWKVDNALQSGNSQESVTEQDSKDSTYSLSSTLTLSKADYEKHKVYACEVTHQGLSSPVTKSFNRGEC
notes: as for B1
B4: GpH7-A5/GpH7-B3 variant Q295_11K/GpL16-k0 (antibody, human IgG1, kappa)
heavy 1: not shown
heavy 2: not shown
light: DIVMTQSPLSLPVTPGEPASISCQASESLVHSNRNTYLHWYLQKPGQSPQLLIYKVSNRFSGVPDRFSGSGSGTDFTLKISRVEAEDVGVYYCSQNTHVPPTFGQGTKVEIERTVAAPSVFIFPPSDEQLKSGTASVVCLLNNFYPREAKVQWKVDNALQSGNSQESVTEQDSKDSTYSLSSTLTLSKADYEKHKVYACEVTHQGLSSPVTKSFNRGEC
notes: as for B1
B5: GpH7-A5/GpH7-B3 variant Q295_09D/GpL16-k0 (antibody, human IgG1, kappa)
heavy 1: not shown
heavy 2: not shown
light: DIVMTQSPLSLPVTPGEPASISCQASESLVHSNRNTYLHWYLQKPGQSPQLLIYKVSNRFSGVPDRFSGSGSGTDFTLKISRVEAEDVGVYYCSQNTHVPPTFGQGTKVEIERTVAAPSVFIFPPSDEQLKSGTASVVCLLNNFYPREAKVQWKVDNALQSGNSQESVTEQDSKDSTYSLSSTLTLSKADYEKHKVYACEVTHQGLSSPVTKSFNRGEC
notes: as for B1
B6: GpH7-A5/GpH7-B3 variant Q295_13S/GpL16-k0 (antibody, human IgG1, kappa)
heavy 1: not shown
heavy 2: not shown
light: DIVMTQSPLSLPVTPGEPASISCQASESLVHSNRNTYLHWYLQKPGQSPQLLIYKVSNRFSGVPDRFSGSGSGTDFTLKISRVEAEDVGVYYCSQNTHVPPTFGQGTKVEIERTVAAPSVFIFPPSDEQLKSGTASVVCLLNNFYPREAKVQWKVDNALQSGNSQESVTEQDSKDSTYSLSSTLTLSKADYEKHKVYACEVTHQGLSSPVTKSFNRGEC
notes: as for B1
B7: GpH7-A5/GpH7-B3 variant Q295_15Y/GpL16-k0 (antibody, human IgG1, kappa)
heavy 1: not shown
heavy 2: not shown
light: DIVMTQSPLSLPVTPGEPASISCQASESLVHSNRNTYLHWYLQKPGQSPQLLIYKVSNRFSGVPDRFSGSGSGTDFTLKISRVEAEDVGVYYCSQNTHVPPTFGQGTKVEIERTVAAPSVFIFPPSDEQLKSGTASVVCLLNNFYPREAKVQWKVDNALQSGNSQESVTEQDSKDSTYSLSSTLTLSKADYEKHKVYACEVTHQGLSSPVTKSFNRGEC
notes: as for B1

How the values were obtained:
Test in all cases: SPR; He Ab vs HeCon Ab (GpH7-A5/GpH7-B3/GpL16-k0)=100;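 further: surface plasmon resonance at 25 °C with the test antibody captured on a sensor chip via antigenic peptide, protein L or protein A/G and FcγR flowed over as analyte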
[1] = target: T4, FcγRIa extracellular domain, C-terminal His tag (human, UniProt P12314 16-292)
T4 construct: extracellular domain; also called 1a
T4 sequence (P12314 other isoform, or with tags, fused parts or gaps): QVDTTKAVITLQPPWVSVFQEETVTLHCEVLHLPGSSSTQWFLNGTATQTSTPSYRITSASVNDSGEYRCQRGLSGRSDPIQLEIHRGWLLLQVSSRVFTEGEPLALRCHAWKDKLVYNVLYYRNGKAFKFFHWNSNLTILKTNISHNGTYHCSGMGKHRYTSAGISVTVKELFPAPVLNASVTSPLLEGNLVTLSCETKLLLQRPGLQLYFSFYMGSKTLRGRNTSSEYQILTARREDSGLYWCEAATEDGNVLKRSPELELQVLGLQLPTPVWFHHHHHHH
Description: (§1) The antibody of interest was analyzed for its interaction with FcγR using a BiaCore™ T100, BiaCore™ A100, or BiaCore™ 4000 surface plasmon resonance system (GE Healthcare Japan Corp.). The running buffer used was HBS-EP+ (GE Healthcare Japan Corp.). The assay temperature was set to 25° C. The sensor chips used were: a chip prepared by immobilizing antigenic peptides onto Series S Sensor Chip CM5 (GE Healthcare Japan Corp.) by the amine coupling method; a chip prepared by immobilizing antigenic peptides biotinylated in advance onto Series S Sensor Chip SA (certified) (GE Healthcare Japan Corp.) through their interaction; a chip prepared by immobilizing protein L (ACTIGEN, BioVision, Inc.) onto Series S Sensor Chip CM5 (GE Healthcare Japan Corp.); and a chip prepared by immobilizing protein A/G (Thermo Fisher Scientific K.K.) onto Series S Sensor Chip CM5 (GE Healthcare Japan Corp.). The antibody of interest was captured onto any of these chips and allowed to interact with FcγR diluted with a running buffer. The antibody captured on the chip was washed off through the reaction of 10 mM glycine-HCl (pH 1.5) to regenerate the chip, which was repetitively used.

[2] = target: T5, FcγRIIIa extracellular domain, C-terminal His tag (human, UniProt P08637 17-208)
T5 construct: extracellular domain; also called 3a
T5 sequence (P08637 other isoform, or with tags, fused parts or gaps): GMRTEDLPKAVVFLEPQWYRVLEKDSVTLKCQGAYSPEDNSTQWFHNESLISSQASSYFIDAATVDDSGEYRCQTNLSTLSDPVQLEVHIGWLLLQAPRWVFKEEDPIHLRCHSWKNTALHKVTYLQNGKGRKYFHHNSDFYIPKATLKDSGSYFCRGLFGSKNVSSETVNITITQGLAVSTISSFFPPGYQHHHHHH
Description: as §1

[3] = target: T1, FcγRIIb extracellular domain, …
Description: as §1

[4] = target: T2, FcγRIIa(R) extracellular domain, …
Description: as §1

[5] = target: T3, FcγRIIa(H) extracellular domain, …
Description: as §1

| Binder | He/Con 1a [1] [%] | He/Con 3a [2] [%] | He/Con 2b [3] [%] | He/Con 2aR [4] [%] | He/Con 2aH [5] [%] |
| --- | --- | --- | --- | --- | --- |
| B1 | 103 | 120 | 134 | 118 | 128 |
| B2 | 101 | 105 | 106 | 101 | 112 |
| B3 | 101 | 120 | 74.9 | 79.2 | 86.2 |
| B4 | 99.7 | 81.8 | 79 | 88.1 | 102 |
| B5 | 98.5 | 85.6 | 68.1 | 68.7 | 62.6 |
| B6 | 100 | 90.4 | 63.8 | 73 | 79.5 |
| B7 | 100 | 81.5 | 73.3 | 82 | 89.3 |
